The values below come from paper PMC3691308.

Assay [1] has as its target Leishmania braziliensis Hsp90 (LbHsp90) (Leishmania braziliensis).
The target is the same in assay [2]. Put plainly: ITC; LbAha1 (130–150 µM) injected into LbHsp90 (around 5.5 µM, as dimers); 40 mM HEPES pH 7.5, 5 mM KCl; 20°C; One Set of Sites fit; apparent enthalpy. On the technique in general: ITC needs no label: the signal is the heat of the interaction.

pKd: −log10 of the molar value.

The pKd is the Kd on a negative log10 scale, so that one unit is a factor of ten. In the case of “Leishmania braziliensis Activator of Hsp90 ATPase 1 (LbAha1) (natural protein)”, the stimulation of LbHsp90 ATPase activity (1 µM dimer, 0.5 mM ATP, 37°C) by increasing LbAha1 (0–20 µM in the methods, 0–16 µM in the legend); relative ATPase activity in assay [1] worked out at 10 fold. Also, in assay [2], the pKd is 6.00, the dH was -18 kcal/mol and the stoichiometry N (LbAha1 per LbHsp90 dimer) worked out at 2.
